Source: patent CN112142841A (JIANGSU QUANXIN BIOMEDICAL CO LTD, dated 2020)

Key:
[1] = target: T1, 人IL-17A蛋白 (Example 4, sandwich ELISA) (human, UniProt Q16552 24-155); assay: sandwich ELISA: QX002N coated, human IL-17A 0-10 ng/ml, biotin-labelled second antibody for detection, SA-HRP
T1 construct: also called 重组人IL-17A蛋白标准品; recombinant human IL-17A protein standard
T1 sequence (looked up): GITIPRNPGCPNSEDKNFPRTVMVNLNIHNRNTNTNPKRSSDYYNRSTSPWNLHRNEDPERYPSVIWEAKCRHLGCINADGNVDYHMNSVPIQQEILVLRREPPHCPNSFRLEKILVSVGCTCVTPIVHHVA

[2] = target: T2, 人IL-17A (His-tag，购自Novoprotein) (human, UniProt Q16552 24-155); assay: ELISA: antibody coated, serially diluted His-tagged human IL-17A, anti-His-HRP detection
T2 construct: Bought His-tagged protein, detected with an HRP-labelled anti-His antibody; also called human IL-17A; hIL-17A; not shown: His-tag
T2 sequence (looked up): T1 sequence (looked up)

B1: 抗人IL-17A单克隆抗体 (anti-human IL-17A monoclonal antibody) (antibody, V domains shown)
VH: QSLEESGGDLVQPEGSLALTCKASGFDLSSYYYMCWVRQAPGKGLEWIACIHTGNGYPYYANWAKGRFTISKTSSTTVTLQLTSLTVADTATYFCARPVGGYDYAMDLWGPGTLVTVSS
VL: AYDMTQTPASVSAAVGGTVTINCQASEDISSQLSWYQQRPGQPPKLLIYKASTLASGVPSRFRGSGSGTQFTLTISGVQCADAATYYCQQSASYFNVANTFGGGTEVVVKG
notes: also called 第二抗体; 检测抗体
- binding result [1]: binds
- binding result [2]: binds
